Assay results: US20250304706A1 (Astellas, published 2025)

Biological target: T1, CD3εδ complex protein (human; alpaca, UniProt P07766 23-126; P04234 22-105)
T1 construct: they are not part of the secreted protein; also called human CD3; CD386 complex protein
Test: ELISA, CD3 complex immobilized
Protocol: Binding activities of the anti-TSPAN8/anti-CD3 bispecific antibodies BTE-0001 to BTE-0067 to CD3 were evaluated by the ELISA. ELISA was performed according to a conventional method. The […] complex protein obtained in Example 1-3 was immobilized on a plate. BTE-0001 to BTE-0067 were used as the test antibodies. As a secondary antibody, Goat anti-Human IgG Fc, Multi-Species SP ads-HRP (2014-05, available from SouthernBiotech) was used. TMB+Substrate-Chromogen (S1599, available from Dako) was used as the detection reagent. Infinite M200pro (available from Tecan) was used to measure the absorbance. The EC50 values were calculated using variable slope model (four parameters) in GraphPad Prism with the maximum value in the same plate fixed at the top and the minimum value in the blank in the same plate fixed at the bottom. Since BTE-0001 was always measured in each plate as a control, only the EC50 value of BTE-0001 was expressed as the average value of a plurality of plates. […]

T1 sequence (P07766 23-126 limits assumed, stated change not applied, form in doubt, chain 1 of 2): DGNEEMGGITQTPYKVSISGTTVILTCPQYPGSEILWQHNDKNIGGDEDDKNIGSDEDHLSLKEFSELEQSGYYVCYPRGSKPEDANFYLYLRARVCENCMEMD
T1 sequence (P04234 22-105 limits assumed, stated change not applied, form in doubt, chain 2 of 2): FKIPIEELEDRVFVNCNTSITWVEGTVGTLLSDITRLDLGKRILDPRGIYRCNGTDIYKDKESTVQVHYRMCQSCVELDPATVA

B1: BTE-0151 (bispecific antibody, human IgG1, kappa, L234A L235A)
heavy: QVQLQQWGAGLLKPSETLSLTCAVYGGSFSPYYWSWIRQPPGKGLEWIGEINHSGSTNYNPSLKSRVTISVDTSKNQFSLKLSSVTAADTAVYYCARRAGDFDYWGQGTLVTVSSASTKGPSVFPLAPSSKSTSGGTAALGCLVKDYFPEPVTVSWNSGALTSGVHTFPAVLQSSGLYSLSSVVTVPSSSLGTQTYICNVNHKPSNTKVDKKVEPKSCDKTHTCPPCPAPEAAGGPSVFLFPPKPKDTLMISRTPEVTCVVVDVSHEDPEVKFNWYVDGVEVHNAKTKPREEQYNSTYRVVSVLTVLHQDWLNGKEYKCKVSNKALAAPIEKTISKAKGQPREPQVYTLPPSRDELTKNQVSLSCAVKGFYPSDIAVEWESNGQPENNYKTTPPVLDSDGSFFLVSKLTVDKSRWQQGNVFSCSVMHEALHNHYTQKSLSLSPGK
light: not shown
scFv: not shown
notes: anti-CD37/anti-CD3
In the case of B1, the EC50 is reported as 0.0747 µg/mL.

B2: BTE-0152 (bispecific antibody, human IgG1, kappa, L234A L235A)
heavy: B1 heavy
light: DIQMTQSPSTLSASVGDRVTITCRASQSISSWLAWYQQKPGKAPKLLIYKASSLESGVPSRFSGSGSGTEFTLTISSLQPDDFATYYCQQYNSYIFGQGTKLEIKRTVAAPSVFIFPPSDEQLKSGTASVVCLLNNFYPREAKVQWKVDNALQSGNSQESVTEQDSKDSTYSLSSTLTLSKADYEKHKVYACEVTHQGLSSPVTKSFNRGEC
scFv: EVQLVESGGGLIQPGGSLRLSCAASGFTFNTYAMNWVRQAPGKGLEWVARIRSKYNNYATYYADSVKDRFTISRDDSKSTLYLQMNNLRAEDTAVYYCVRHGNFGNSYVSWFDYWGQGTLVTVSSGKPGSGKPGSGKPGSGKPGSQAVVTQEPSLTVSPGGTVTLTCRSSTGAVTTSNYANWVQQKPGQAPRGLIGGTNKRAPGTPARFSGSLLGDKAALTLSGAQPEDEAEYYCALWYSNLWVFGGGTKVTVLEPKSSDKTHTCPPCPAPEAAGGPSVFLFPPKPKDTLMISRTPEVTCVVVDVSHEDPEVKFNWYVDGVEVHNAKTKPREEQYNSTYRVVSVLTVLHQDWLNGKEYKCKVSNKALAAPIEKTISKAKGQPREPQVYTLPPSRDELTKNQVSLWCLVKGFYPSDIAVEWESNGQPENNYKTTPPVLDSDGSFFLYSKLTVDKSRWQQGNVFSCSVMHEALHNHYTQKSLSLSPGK
notes: anti-CD37/anti-CD3
B2 gave an EC50 of 0.36 µg/mL.

B3: BTE-0142 (bispecific antibody, human IgG1, kappa, L234A L235A)
heavy: B1 heavy
light: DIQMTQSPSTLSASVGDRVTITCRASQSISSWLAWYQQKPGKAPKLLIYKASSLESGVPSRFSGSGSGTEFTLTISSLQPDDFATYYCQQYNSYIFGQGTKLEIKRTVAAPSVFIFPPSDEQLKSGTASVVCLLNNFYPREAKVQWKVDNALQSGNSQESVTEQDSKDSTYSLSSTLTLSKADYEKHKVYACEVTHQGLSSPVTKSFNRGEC
scFv: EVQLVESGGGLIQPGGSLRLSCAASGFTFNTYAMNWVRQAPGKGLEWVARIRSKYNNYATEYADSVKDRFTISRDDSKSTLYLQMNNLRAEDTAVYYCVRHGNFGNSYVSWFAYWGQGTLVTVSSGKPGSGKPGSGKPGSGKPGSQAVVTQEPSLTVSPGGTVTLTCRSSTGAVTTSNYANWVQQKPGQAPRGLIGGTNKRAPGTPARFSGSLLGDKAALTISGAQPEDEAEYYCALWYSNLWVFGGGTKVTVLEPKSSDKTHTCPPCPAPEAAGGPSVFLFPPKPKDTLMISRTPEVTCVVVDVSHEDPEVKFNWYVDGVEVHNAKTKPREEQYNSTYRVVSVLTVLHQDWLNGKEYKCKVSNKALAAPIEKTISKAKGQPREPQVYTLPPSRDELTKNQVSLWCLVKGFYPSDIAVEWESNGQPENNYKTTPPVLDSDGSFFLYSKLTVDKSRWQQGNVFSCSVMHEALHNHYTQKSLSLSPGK
notes: anti-CD37/anti-CD3
With B3 the EC50 was 0.292 µg/mL.

B4: BTE-0145 (bispecific antibody, human IgG1, kappa, L234A L235A)
heavy: B1 heavy
light: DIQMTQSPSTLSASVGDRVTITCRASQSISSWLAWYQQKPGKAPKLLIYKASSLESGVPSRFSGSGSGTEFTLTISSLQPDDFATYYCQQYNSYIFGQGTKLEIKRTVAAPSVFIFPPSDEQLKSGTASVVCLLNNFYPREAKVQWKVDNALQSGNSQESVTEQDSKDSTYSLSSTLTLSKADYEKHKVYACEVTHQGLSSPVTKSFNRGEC
scFv: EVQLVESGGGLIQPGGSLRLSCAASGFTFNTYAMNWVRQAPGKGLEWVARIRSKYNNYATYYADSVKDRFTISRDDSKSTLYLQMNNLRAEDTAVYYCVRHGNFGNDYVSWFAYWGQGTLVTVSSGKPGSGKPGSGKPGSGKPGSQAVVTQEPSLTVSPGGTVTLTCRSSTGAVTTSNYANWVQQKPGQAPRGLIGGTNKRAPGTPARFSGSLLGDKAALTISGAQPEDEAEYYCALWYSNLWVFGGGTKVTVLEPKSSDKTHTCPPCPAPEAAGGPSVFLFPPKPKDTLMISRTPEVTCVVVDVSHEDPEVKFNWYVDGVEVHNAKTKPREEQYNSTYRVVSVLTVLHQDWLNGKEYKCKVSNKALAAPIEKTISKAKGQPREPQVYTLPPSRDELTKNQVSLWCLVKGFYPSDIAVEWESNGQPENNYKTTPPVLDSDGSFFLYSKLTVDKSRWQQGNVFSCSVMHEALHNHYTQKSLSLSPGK
notes: anti-CD37/anti-CD3
B4 gave an EC50 of 0.0854 µg/mL.

B5: BTE-0149 (bispecific antibody, human IgG1, kappa, L234A L235A)
heavy: B1 heavy
light: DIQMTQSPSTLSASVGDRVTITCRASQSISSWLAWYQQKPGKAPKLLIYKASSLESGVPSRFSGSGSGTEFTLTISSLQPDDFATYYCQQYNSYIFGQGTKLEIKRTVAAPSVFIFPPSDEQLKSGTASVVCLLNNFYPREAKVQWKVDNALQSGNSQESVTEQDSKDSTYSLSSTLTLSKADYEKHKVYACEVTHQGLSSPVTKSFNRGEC
scFv: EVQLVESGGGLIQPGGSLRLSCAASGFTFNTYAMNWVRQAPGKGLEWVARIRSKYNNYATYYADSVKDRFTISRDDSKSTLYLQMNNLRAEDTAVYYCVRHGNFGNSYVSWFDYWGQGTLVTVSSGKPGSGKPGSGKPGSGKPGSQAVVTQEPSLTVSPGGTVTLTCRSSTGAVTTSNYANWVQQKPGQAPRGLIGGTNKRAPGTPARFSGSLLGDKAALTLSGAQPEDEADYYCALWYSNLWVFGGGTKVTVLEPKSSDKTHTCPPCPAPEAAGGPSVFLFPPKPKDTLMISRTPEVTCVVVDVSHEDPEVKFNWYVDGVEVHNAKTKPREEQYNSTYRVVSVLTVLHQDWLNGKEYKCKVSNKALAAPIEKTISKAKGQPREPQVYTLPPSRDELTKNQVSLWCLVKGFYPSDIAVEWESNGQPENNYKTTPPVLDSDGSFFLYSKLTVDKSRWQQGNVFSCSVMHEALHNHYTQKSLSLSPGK
notes: anti-CD37/anti-CD3
In the case of B5, the EC50 is reported as 0.209 µg/mL.

B6: BTE-0137 (bispecific antibody, human IgG1, kappa, L234A L235A)
heavy: B1 heavy
light: not shown
scFv: not shown
notes: anti-CD37/anti-CD3
B6 showed an EC50 of 1.6 µg/mL.

B7: BTE-0138 (bispecific antibody, human IgG1, kappa, L234A L235A)
heavy: B1 heavy
light: not shown
scFv: not shown
notes: anti-CD37/anti-CD3
In the case of B7, the EC50 is reported as 0.071 µg/mL.

B8: BTE-0144 (bispecific antibody, human IgG1, kappa, L234A L235A)
heavy: B1 heavy
light: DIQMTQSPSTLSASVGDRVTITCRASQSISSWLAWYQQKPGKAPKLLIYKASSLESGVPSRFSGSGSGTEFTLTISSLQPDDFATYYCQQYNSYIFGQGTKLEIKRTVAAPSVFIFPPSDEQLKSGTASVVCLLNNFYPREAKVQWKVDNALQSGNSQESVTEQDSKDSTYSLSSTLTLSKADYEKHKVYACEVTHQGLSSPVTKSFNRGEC
scFv: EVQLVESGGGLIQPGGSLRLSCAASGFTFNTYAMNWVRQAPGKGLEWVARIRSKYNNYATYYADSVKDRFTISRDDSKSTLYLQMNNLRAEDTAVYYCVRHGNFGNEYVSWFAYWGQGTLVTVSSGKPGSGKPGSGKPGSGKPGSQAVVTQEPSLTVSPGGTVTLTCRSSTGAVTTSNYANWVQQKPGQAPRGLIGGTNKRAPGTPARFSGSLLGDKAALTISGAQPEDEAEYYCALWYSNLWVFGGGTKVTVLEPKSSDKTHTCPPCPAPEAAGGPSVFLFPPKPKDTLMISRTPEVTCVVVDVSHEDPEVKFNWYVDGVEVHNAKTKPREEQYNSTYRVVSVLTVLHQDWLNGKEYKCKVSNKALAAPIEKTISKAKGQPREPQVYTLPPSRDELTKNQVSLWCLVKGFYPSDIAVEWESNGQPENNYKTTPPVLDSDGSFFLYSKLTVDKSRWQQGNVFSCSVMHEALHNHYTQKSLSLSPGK
notes: anti-CD37/anti-CD3
B8 showed an EC50 of 0.138 µg/mL.

B9: BTE-0140 (bispecific antibody, human IgG1, kappa, L234A L235A)
heavy: B1 heavy
light: not shown
scFv: not shown
notes: anti-CD37/anti-CD3
B9 showed an EC50 of 0.205 µg/mL.

B10: BTE-0148 (bispecific antibody, human IgG1, kappa, L234A L235A)
heavy: B1 heavy
light: not shown
scFv: not shown
notes: anti-CD37/anti-CD3
For B10, the EC50 was 0.0364 µg/mL.

B11: BTE-0136 (bispecific antibody, human IgG1, kappa, L234A L235A)
heavy: B1 heavy
light: not shown
scFv: not shown
notes: anti-CD37/anti-CD3
B11 showed an EC50 of 0.0669 µg/mL.

B12: BTE-0141 (bispecific antibody, human IgG1, kappa, L234A L235A)
heavy: B1 heavy
light: not shown
scFv: not shown
notes: anti-CD37/anti-CD3
B12 gave an EC50 of 0.029 µg/mL.

B13: BTE-0146 (bispecific antibody, human IgG1, kappa, L234A L235A)
heavy: B1 heavy
light: not shown
scFv: not shown
notes: anti-CD37/anti-CD3
B13 was tested, and the EC50 was 0.488 µg/mL.

B14: BTE-0139 (bispecific antibody, human IgG1, kappa, L234A L235A)
heavy: B1 heavy
light: not shown
scFv: not shown
notes: anti-CD37/anti-CD3
B14 was tested, and the EC50 was 0.444 µg/mL.

B15: BTE-0143 (bispecific antibody, human IgG1, kappa, L234A L235A)
heavy: B1 heavy
light: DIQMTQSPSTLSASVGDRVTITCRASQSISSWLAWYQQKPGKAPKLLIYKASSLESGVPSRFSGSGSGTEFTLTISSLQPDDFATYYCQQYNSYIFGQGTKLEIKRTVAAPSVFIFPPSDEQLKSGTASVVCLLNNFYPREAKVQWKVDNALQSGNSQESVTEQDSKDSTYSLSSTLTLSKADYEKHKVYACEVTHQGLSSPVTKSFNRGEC
scFv: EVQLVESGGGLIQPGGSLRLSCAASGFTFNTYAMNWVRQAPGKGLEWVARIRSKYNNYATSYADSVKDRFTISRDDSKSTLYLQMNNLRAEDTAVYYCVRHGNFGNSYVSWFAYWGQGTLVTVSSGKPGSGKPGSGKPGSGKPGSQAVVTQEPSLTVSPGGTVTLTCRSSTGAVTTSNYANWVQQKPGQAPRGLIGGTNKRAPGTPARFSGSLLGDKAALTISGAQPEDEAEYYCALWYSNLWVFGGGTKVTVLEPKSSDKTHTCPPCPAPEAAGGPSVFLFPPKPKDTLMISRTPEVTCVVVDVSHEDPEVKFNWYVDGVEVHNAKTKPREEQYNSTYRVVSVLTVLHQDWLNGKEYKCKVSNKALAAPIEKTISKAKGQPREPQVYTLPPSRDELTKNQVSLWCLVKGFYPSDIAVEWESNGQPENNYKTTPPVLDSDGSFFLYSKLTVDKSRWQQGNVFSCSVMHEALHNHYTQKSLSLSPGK
notes: anti-CD37/anti-CD3
B15 was tested, and the EC50 was 0.0644 µg/mL.

B16: BTE-0147 (bispecific antibody, human IgG1, kappa, L234A L235A)
heavy: B1 heavy
light: not shown
scFv: not shown
notes: anti-CD37/anti-CD3
B16 was tested, and the EC50 was 0.0317 µg/mL.
